The chains are these.
B1: Anti-PD-1 clone J110 hIgG1 (antibody, V domains shown)
VH: DVQLQESGPGLVKPSQSLSLTCTVTGHSITSDYAWNWIRQFPGDKLEWMGYISYSGYTTYNPSLKSRVSITRDTSKNQFFLQLNSVTTEDTATYFCARDLDYGPWFAYWGQGTLVTVSA
VL: DIQMTQSPASLSASVGETVTLTCRASENIHNYLAWYQQKQGKSPQLLVYNVKTLADGVPSRFSGSGSGTQYSLKINSLQPEDFGSYYCQHFWSSPWTFGGGTKVEIKR
B2: 2H7-hIgG4-LE (antibody)
heavy: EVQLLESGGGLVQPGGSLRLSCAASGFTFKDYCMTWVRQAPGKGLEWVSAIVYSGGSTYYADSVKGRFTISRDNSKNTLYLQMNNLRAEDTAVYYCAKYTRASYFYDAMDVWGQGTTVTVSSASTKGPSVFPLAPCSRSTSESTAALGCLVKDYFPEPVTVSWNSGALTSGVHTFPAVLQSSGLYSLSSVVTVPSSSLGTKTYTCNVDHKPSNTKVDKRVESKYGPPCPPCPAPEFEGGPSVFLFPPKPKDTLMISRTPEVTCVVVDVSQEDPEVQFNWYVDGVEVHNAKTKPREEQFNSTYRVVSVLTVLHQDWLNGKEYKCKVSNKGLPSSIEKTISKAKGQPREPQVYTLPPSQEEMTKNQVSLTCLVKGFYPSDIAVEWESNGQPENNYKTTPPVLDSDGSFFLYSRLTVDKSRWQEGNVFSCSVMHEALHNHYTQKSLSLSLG
light: EIVLTQSPGTLSLSPGERATLSCRASQSIGKSFLAWYQQKPGQAPRLLIYDASTRAADIPARFSGSGSGTDFTLTISSLEPEDFAVYYCQQYYDWPPLSFGGGTKVEIKRTVAAPSVFIFPPSDEQLKSGTASVVCLLNNFYPREAKVQWKVDNALQSGNSQESVTEQDSKDSTYSLSSTLTLSKADYEKHKVYACEVTHQGLSSPVTKSFNRGEC
B3: 2H7-hIgG4-LAGA (antibody)
heavy: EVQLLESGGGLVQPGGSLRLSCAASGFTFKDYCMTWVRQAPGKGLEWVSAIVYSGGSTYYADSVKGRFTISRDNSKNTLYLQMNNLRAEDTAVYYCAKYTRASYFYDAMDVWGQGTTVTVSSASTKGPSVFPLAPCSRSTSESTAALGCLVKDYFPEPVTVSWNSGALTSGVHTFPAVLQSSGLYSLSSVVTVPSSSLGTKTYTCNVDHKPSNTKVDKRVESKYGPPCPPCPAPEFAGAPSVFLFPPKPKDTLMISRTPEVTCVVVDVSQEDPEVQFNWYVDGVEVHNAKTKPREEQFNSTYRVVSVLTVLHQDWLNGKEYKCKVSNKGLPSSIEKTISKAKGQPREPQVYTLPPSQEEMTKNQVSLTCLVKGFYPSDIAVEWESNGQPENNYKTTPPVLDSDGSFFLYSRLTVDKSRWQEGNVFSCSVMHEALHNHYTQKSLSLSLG
light: B2 light
B4: A2-hIgG4 (antibody, V domains shown)
VH: DVQLVESGGGLVQPGGSLRLSCAASGFTFDISAMSWVRQAPGKGLEWVSTISGSAYSTYYADSVKGRFTISRDNSKSTLYLQMNSLRAEDTAVYYCAREIFSDYWGLGTLVTVSS
VL: QSVLTQPPSASGTPGQRVTISCSGSTSNIGRESVYWYQQLPGTAPKLLIYSNVQRPSGAPNRFSGSKSGTSASLAISGLQSEDEADYYCGTWDDSLNGWVFGGGTKLTVLG
B5: OMC476pE4-hIgG4 (antibody, V domains shown)
VH: DVQLVESGGGVVRPGESLRLSCAASGFTFSTDAMGWVRQAPGEGLEWVSLISGSGYSTYYADSVKGRFTISRDNSKNTLYLQMNSLTAEDTAVYYCAKNSLAFFDYWGLGTLVTVSS
VL: B4 VL with S25G, T26S, Y35N, N52T, V53D, Q54R, A59V, N61D, D94N, S95D
B6: G12-hIgG4 (antibody, V domains shown)
VH: DSLVESGGGLVQPGGSLRLSCAASGFTFDISAMSWVRQAPGKGLEWVSTISGSAYSTYYADSVKGRFTISRDNSKSTLYLQMNSLRAEDTAVYYCAREIFSDYWGLGTLVTVSS
VL: B4 VL with S51L, V53S, A59V, N61D, E84V
B7: D12-hIgG4 (antibody, V domains shown)
VH: B4 VH
VL: B4 VL with S25N, A59V, N61D
B8: OMC.1.B6-hIgG4 (antibody, V domains shown)
VH: EVQLLESGGGLVQPGGSLRLSCAASGFTFSSNYMSWVRQAPGKGLEWVSAISSSGGTIFYADSVKGRFTISRDNSKNTLYLQMNSLRAEDTAVYYCAKHKWNAVYYDGMDVWGQGTTVTVSS
VL: QSVLTQPPSASGTPGQRVTISCSGSNSNIGRNLVNWYQQLPGTAPKLLIYTIDQRPSGVPDRFSGSKSGTSASLVISGLQSEDEADYYCAAWDGSLNAWVFGGGTKLTVLG
B9: OMC.1.D6-hIgG4 (antibody, V domains shown)
VH: B8 VH with S31D, N32Y, T69I, A103D, G108A
VL: B8 VL with I52V, V75A, Q80A, G94S, A98S
B10: Abz1mod-hIgG4 (antibody, V domains shown)
VH: QVQLVQSGSELKKPGASVKVSCKASGYTFTSYAMHWVRQAPGQGLEWMGYISPFTGRATYAQGFTGRFVFSLDTSVSTAYLQISSLKAEDTAVYYCARDYDYRYYYAMDYWGQGTTVTVSS
VL: EIVLTQSPDFQSVTPKEKVTITCRASQSIPPQFLHWYQQKPDQSPKLLIKAASQRASGVPSRFSGSGSGTDFTLTINSLEAEDAATYYCHQFHSSPLTFGGGTKLEIKR
B11: OMC476pG10-hIgG4 (antibody, V domains shown)
VH: DVQLVESGGGVVRPGGSLRLSCAASGFTFSIYAMSWVRQAPGEGLEWVSHISASGGSTYYADSVKGRFAISRDNSKNTLYLQMNSLRAEDTAVYYCTTNLGSDYWGLGTLVTVSS
VL: QSVLTQPPSASGTPGQRVTISCSGSYSDIGTNYVYWYQQLPGTAPKLLIFATDRRPSGVPDRFSGSKSGTSASLAISGLQSEDEADYYCGTWDDSLNVWVFGGGTKLTVLG
B12: OMC476pH10-hIgG4 (antibody, V domains shown)
VH: B11 VH with M34V
VL: B11 VL
B13: OMC.2.C6-hIgG4 (antibody, V domains shown)
VH: EVQLLESGGGLVQPGGSLRLSCTASGFTFSSYEMQWVRQAPGKGLEWVLGITSSSSHIFYADSVKGRFTVSRDNSKNTLYLQMNSLRAEDTAVYYCTKDLNSYYGLDVWGQGTTVTVSS
VL: QSVMTQPPSASGTPGQRVTISCSGSTSNLGNNYVSWYQHLPGTAPKLLIYGNDQRPSGVPDRFSGSKSGTSASLAISGLQSDDEADYYCSSWDASLNVWVFGGGTKLTVLG
B14: OMC.1.B6-hIgG4 (antibody, V domains shown)
VH: B8 VH
VL: B8 VL
B15: OMC.1.D6-hIgG4 (antibody, V domains shown)
VH: B8 VH with S31D, N32Y, T69I, A103D, G108A
VL: B8 VL with I52V, V75A, Q80A, G94S, A98S
B16: 2A3.H7-hIgG4 (antibody, V domains shown)
VH: EVQLLESGGGLVQPGGSLRLSCAASGFTFKDYCMTWVRQAPGKGLEWVSAIVYSGGSTYYADSVKGRFTISRDNSKNTLYLQMNNLRAEDTAVYYCAKYTRASYFYDAMDVWGQGTTVTVSS
VL: EIVLTQSPGTLSLSPGERATLSCRASQSIGRSFLAWYQQKPGQAPRLLIYDASTRAADIPARFSGSGSGTDFTLTISSLEPEDFAVYYCQQYYDWPPLSFGGGTKVEIKR
B17: 1H9-hIgG4 (antibody, V domains shown)
VH: B16 VH with A23V, A24G, T28N, F29L, N85S, A102G
VL: B16 VL with A61D, S77N, S78R, S99T
B18: 1D5-hIgG4 (antibody, V domains shown)
VH: B16 VH with A23V, A24G, T28N, N85S, A102G
VL: B16 VL with A57T, A61D, D71E, E80Q, P81S, S99T
B19: OMC.2.C6-hIgG4 (antibody, V domains shown)
VH: B13 VH
VL: B13 VL

Residue numbers refer to the chain shown, from its start.

These results are taken from patent US20240076343A1 (CEPHALON, published 2024).

Chain of human PD-1 on Jurkat Effector cells of the PD-1/PD-L1 blockade bioassay (Promega, Cat #J1255) (Q15116 25-288): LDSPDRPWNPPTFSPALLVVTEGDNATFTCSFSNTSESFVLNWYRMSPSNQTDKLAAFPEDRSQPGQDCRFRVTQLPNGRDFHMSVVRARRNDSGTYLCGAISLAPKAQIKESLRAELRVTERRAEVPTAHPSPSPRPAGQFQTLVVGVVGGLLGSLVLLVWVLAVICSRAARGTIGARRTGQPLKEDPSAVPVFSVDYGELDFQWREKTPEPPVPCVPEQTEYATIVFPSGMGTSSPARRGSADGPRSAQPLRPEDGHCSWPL

The target in the first experiment is T1, recombinant His-tagged human PD-1 (Acro Biosystems) (human, UniProt Q15116 25-167).
T1 construct: His-tagged; also called hPD-1
T1 sequence (Q15116 25-167 limits assumed): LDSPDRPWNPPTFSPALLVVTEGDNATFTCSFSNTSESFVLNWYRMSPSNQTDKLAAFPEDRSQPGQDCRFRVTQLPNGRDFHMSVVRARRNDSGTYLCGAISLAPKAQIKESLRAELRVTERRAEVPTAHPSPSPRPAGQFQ
Description: SPR Carterra LSA.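 Further: antibodies or fusion proteins amine-coupled on an HC30M chip, soluble His-tagged human or cynomolgus PD-1 titrated over them, non-regenerative kinetics, constants fitted from titration curves.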
Description: Surface plasmon resonance binding analysis was performed using a high-throughput SPR Carterra® LSA™ to determine binding affinities of anti-hPD-1 antibodies and anti-hPD-1-attenuated hIL-2 fusion proteins. Proteins were diluted to 2 or 10 μg/mL in 10 mM sodium acetate pH 4.5 containing 0.01% Tween-20 and coupled to a HC30M (Carterra Bio) chip using sulpho-N-hydroxysuccinimide/1-ethyl-3-(3-dimethylamino) propyl carbodiimide (sulpho-NHS/EDC) coupling chemistry and blocked with ethanolamine. A non-regenerative kinetic coupling process was used to determine binding kinetics to commercially sourced recombinant His-tagged human PD-1 and His-tagged cynomolgus PD-1 (Acro Biosystems).
The association constants (kₐ), dissociation constants (kd), and equilibrium constants (KD) of various anti-hPD-1 antibodies and anti-hPD-1 antibody-attenuated hIL-2 fusion proteins binding to recombinant human or cynomolgus PD-1 proteins was determined from the titration curves and the Carterra Kinetics software. The maximal feasible SPR signal generated (Rₘₐₓ) and residual standard deviation (Res SD) was also calculated.
Regarding B1, the Kd amounted to 0.01 µM, the koff came out at 0.001 s⁻¹ and the on-rate (kon) was determined as 100000 M⁻¹ s⁻¹.

B2: the Kd was found to be 0.0031 µM, the koff stood at 0.00082 s⁻¹ and the kon is 260000 M⁻¹ s⁻¹.

On to B3, for which the Kd came to 0.0053 µM, the off-rate constant (koff) is 0.00091 s⁻¹ and the kon was found to be 170000 M⁻¹ s⁻¹.

Take B4: the dissociation constant (Kd) is 0.036 µM, the koff was 0.0013 s⁻¹ and the kon was found to be 37000 M⁻¹ s⁻¹.

In the case of B5, the dissociation constant Kd amounted to 0.011 µM, the koff was determined as 0.00088 s⁻¹ and the kon is 79000 M⁻¹ s⁻¹.

Regarding B6, the Kd worked out at 0.05 µM, the koff was 0.0026 s⁻¹ and the kon stood at 53000 M⁻¹ s⁻¹.

With B7, the Kd turned out to be 0.0081 µM, the off-rate (koff) was 0.00046 s⁻¹ and the on-rate (kon) was 57000 M⁻¹ s⁻¹.

As to B8, the Kd stood at 0.052 µM, the off-rate constant (koff) was 0.004 s⁻¹ and the on-rate constant (kon) stood at 77000 M⁻¹ s⁻¹.

Take B9: the Kd was found to be 0.042 µM, the koff was 0.0017 s⁻¹ and the association rate constant (kon) came to 41000 M⁻¹ s⁻¹.

As to B10, the equilibrium dissociation constant (Kd) was found to be 0.000426 µM, the koff was 6e-05 s⁻¹ and the on-rate constant (kon) came to 140000 M⁻¹ s⁻¹.

In the case of B11, the Kd was found to be 0.044 µM, the koff is 0.0041 s⁻¹ and the kon was 93000 M⁻¹ s⁻¹.

B12: the Kd is 0.064 µM, the koff stood at 0.0065 s⁻¹ and the on-rate constant (kon) was found to be 100000 M⁻¹ s⁻¹.

For the molecule B13, the Kd turned out to be 0.012 µM, the koff is 0.00066 s⁻¹ and the on-rate (kon) was 57000 M⁻¹ s⁻¹.

The target of another experiment is T2, recombinant His-tagged cynomolgus PD-1 (Acro Biosystems) (cynomolgus, UniProt B0LAJ3 25-170).
T2 construct: His-tagged; also called Cyno PD-1; not shown: His tag (and any linker) of the Acro Biosystems product
T2 sequence (B0LAJ3 entry or part of it limits assumed): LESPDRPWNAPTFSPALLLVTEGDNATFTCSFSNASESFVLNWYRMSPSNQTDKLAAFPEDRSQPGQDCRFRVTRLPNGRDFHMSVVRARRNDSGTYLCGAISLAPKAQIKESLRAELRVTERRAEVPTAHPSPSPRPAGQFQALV
Put plainly: SPR Carterra LSA.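 Further: antibodies or fusion proteins amine-coupled on an HC30M chip, soluble His-tagged human or cynomolgus PD-1 titrated over them, non-regenerative kinetics, constants fitted from titration curves.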
Consider B1, for which the equilibrium dissociation constant (Kd) worked out at 1.2 µM, the off-rate constant (koff) turned out to be 0.05 s⁻¹ and the on-rate (kon) stood at 41000 M⁻¹ s⁻¹.

Turning to B2, the Kd was 0.0071 µM, the off-rate constant (koff) was determined as 0.001 s⁻¹ and the kon is 140000 M⁻¹ s⁻¹.

With B3, the dissociation constant Kd was 0.012 µM, the koff was determined as 0.0011 s⁻¹ and the kon was determined as 91000 M⁻¹ s⁻¹.

In the case of B4, the dissociation constant (Kd) stood at 0.589 µM, the koff was 0.04 s⁻¹ and the on-rate (kon) amounted to 68000 M⁻¹ s⁻¹.

Turning to B5, the Kd came to 0.331 µM, the off-rate constant (koff) was 0.035 s⁻¹ and the kon amounted to 100000 M⁻¹ s⁻¹.

B6: the dissociation constant (Kd) came to 0.754 µM, the koff amounted to 0.065 s⁻¹ and the kon came out at 86000 M⁻¹ s⁻¹.

As to B7, the dissociation constant (Kd) amounted to 0.272 µM, the koff came to 0.016 s⁻¹ and the association rate constant (kon) turned out to be 59000 M⁻¹ s⁻¹.

In the case of B8, the dissociation constant (Kd) came to 0.051 µM, the koff worked out at 0.0044 s⁻¹ and the on-rate (kon) turned out to be 88000 M⁻¹ s⁻¹.

B9: the dissociation constant Kd is 0.694 µM, the koff is 0.04 s⁻¹ and the on-rate (kon) turned out to be 58000 M⁻¹ s⁻¹.

For B10, the dissociation constant (Kd) turned out to be 0.0037 µM, the koff came out at 0.00062 s⁻¹ and the kon worked out at 170000 M⁻¹ s⁻¹.

Turning to B11, the Kd turned out to be 0.487 µM, the off-rate (koff) stood at 0.06 s⁻¹ and the association rate constant (kon) turned out to be 120000 M⁻¹ s⁻¹.

Turning to B12, the Kd stood at 0.48 µM, the off-rate (koff) came to 0.059 s⁻¹ and the kon is 120000 M⁻¹ s⁻¹.

Take B13: the Kd was found to be 0.013 µM, the koff was 0.00074 s⁻¹ and the on-rate (kon) worked out at 55000 M⁻¹ s⁻¹.

A further experiment has as its target human PD-1 on Jurkat Effector cells of the PD-1/PD-L1 blockade bioassay (Promega, Cat #J1255) (human, UniProt Q15116 25-288). Description: cell-based or functional assay.
As to B14, the “luminescence (RLU), PD-1/PD-L1 blockade bioassay” value (from here on “luminescence (RLU)”) was approximately 3000 RLU.

Take B15: the “luminescence (RLU)” value was approximately 3000 RLU.

As for B16, the “luminescence (RLU)” value is approximately 3000 RLU.

Regarding B17, the “luminescence (RLU)” value is approximately 3000 RLU.

With B18, the “luminescence (RLU)” value was approximately 3000 RLU.

B19: the “luminescence (RLU)” value is approximately 3000 RLU.

What is called Kd is a measure of binding affinity in units of concentration. Broadly, the koff is the first-order rate constant of dissociation. The term kon denotes the rate constant with which the complex forms.
